Experimental data as given in the supplement of paper PMC10567573.

B1: KCNAB2 (parent)
chain: SSIIHEIDSILGNKPYSKKDYRS

Variants of: B1
Test: protein stability index of a GFP-peptide fusion (GPS, HEK-293T) (PSI 1-6); higher = more stable
Conditions: c terminus: native
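Further: lentivirally expressed fusions sorted by FACS into six bins by GFP to DsRed ratio, PSI derived from sequencing read proportions per bin multiplied by bin number.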

**Q.** For SSIIHEIDSILGNKPDSKKDYRS [Y16D], which protein stability index is on record?
**A.** 3.65

**Q.** For SSIIHEIDSILGNKPCSKKDYRS [Y16C], which protein stability index is on record?
**A.** 3.55

**Q.** With SSIIHEIDSILGNKPWSKKDYRS [Y16W] as the variant, how does the protein stability index read?
**A.** 2.19

**Q.** For SSIIHEIDSILGNKPSSKKDYRS [Y16S], which protein stability index is on record?
**A.** 3.02

**Q.** With SSIIHEIDSILGNKPTSKKDYRS [Y16T] as the variant, how does the protein stability index read?
**A.** 3.78

**Q.** With SSIIHEIDSILGNKPQSKKDYRS [Y16Q] as the variant, how does the protein stability index read?
**A.** 3.14

**Q.** With SSIIHEIDSILGNKPGSKKDYRS [Y16G] as the variant, how does the protein stability index read?
**A.** 3.59

**Q.** With SSIIHEIDSILGNKPFSKKDYRS [Y16F] as the variant, how does the protein stability index read?
**A.** 3.41

**Q.** With SSIIHEIDEILGNKPYSKKDYRS [S9E] as the variant, how does the protein stability index read?
**A.** 3.66

**Q.** For SSIIHEIDWILGNKPYSKKDYRS [S9W], which protein stability index is on record?
**A.** 2.9

**Q.** For SSIIHEIDKILGNKPYSKKDYRS [S9K], which protein stability index is on record?
**A.** 3.54

**Q.** Which protein stability index does the source give for SSIIHEIDLILGNKPYSKKDYRS [S9L] here?
**A.** 2.38

**Q.** For SSIIHEIDDILGNKPYSKKDYRS [S9D], which protein stability index is on record?
**A.** 2.89

**Q.** With SSIIHEIDYILGNKPYSKKDYRS [S9Y] as the variant, how does the protein stability index read?
**A.** 2.24

**Q.** Which protein stability index does the source give for SSIIHEIDTILGNKPYSKKDYRS [S9T] here?
**A.** 3.41

**Q.** With SSIIHEIDSGLGNKPYSKKDYRS [I10G] as the variant, how does the protein stability index read?
**A.** 4.32

**Q.** Which protein stability index does the source give for SSIIHEIDSELGNKPYSKKDYRS [I10E] here?
**A.** 3.45

**Q.** Which protein stability index does the source give for SSIIHEIDSHLGNKPYSKKDYRS [I10H] here?
**A.** 4.15

**Q.** With SSIIHEIDSVLGNKPYSKKDYRS [I10V] as the variant, how does the protein stability index read?
**A.** 3.67

**Q.** With SSIIHEIDSTLGNKPYSKKDYRS [I10T] as the variant, how does the protein stability index read?
**A.** 3.89

**Q.** For SSIIHEIDSALGNKPYSKKDYRS [I10A], which protein stability index is on record?
**A.** 4.13

**Q.** With SSIIHEIDSILGCKPYSKKDYRS [N13C] as the variant, how does the protein stability index read?
**A.** 2.25

**Q.** For SSIIHEIDSILGSKPYSKKDYRS [N13S], which protein stability index is on record?
**A.** 2.59

**Q.** With SSIIHEIDSILGHKPYSKKDYRS [N13H] as the variant, how does the protein stability index read?
**A.** 3

**Q.** For SSIIHEIDSILGRKPYSKKDYRS [N13R], which protein stability index is on record?
**A.** 3.1

**Q.** Which protein stability index does the source give for SSIIHEIDSILGQKPYSKKDYRS [N13Q] here?
**A.** 2.63

**Q.** Which protein stability index does the source give for SSIIHEIDSILGYKPYSKKDYRS [N13Y] here?
**A.** 1.79

**Q.** Which protein stability index does the source give for KSIIHEIDSILGNKPYSKKDYRS [S1K] here?
**A.** 3.55

**Q.** For YSIIHEIDSILGNKPYSKKDYRS [S1Y], which protein stability index is on record?
**A.** 1.59

**Q.** For QSIIHEIDSILGNKPYSKKDYRS [S1Q], which protein stability index is on record?
**A.** 2.94

**Q.** Which protein stability index does the source give for SSIIHEIHSILGNKPYSKKDYRS [D8H] here?
**A.** 2.06

**Q.** Which protein stability index does the source give for SSIIHEIYSILGNKPYSKKDYRS [D8Y] here?
**A.** 2.14

**Q.** For SSIIHEIPSILGNKPYSKKDYRS [D8P], which protein stability index is on record?
**A.** 2.77

**Q.** For SSIIHEISSILGNKPYSKKDYRS [D8S], which protein stability index is on record?
**A.** 2.45

**Q.** For SSIIHEIQSILGNKPYSKKDYRS [D8Q], which protein stability index is on record?
**A.** 3.06

**Q.** For SSIIHEIESILGNKPYSKKDYRS [D8E], which protein stability index is on record?
**A.** 2.16

**Q.** For SSIIHEIDSILGNKPYSGKDYRS [K18G], which protein stability index is on record?
**A.** 2.61

**Q.** With SSIIHEIDSILGNKPYSWKDYRS [K18W] as the variant, how does the protein stability index read?
**A.** 3.39

**Q.** With SSIIHEIDSILGNKPYSYKDYRS [K18Y] as the variant, how does the protein stability index read?
**A.** 2.24

**Q.** For SSIIHEIDSILGNKPYSNKDYRS [K18N], which protein stability index is on record?
**A.** 3.1

**Q.** With SSIIHEIDSILGNKPYSIKDYRS [K18I] as the variant, how does the protein stability index read?
**A.** 2.11

**Q.** Which protein stability index does the source give for SSIIHEIDSILGNKPYSCKDYRS [K18C] here?
**A.** 2.08

**Q.** For SLIIHEIDSILGNKPYSKKDYRS [S2L], which protein stability index is on record?
**A.** 1.77

**Q.** For SIIIHEIDSILGNKPYSKKDYRS [S2I], which protein stability index is on record?
**A.** 1.72

**Q.** For SPIIHEIDSILGNKPYSKKDYRS [S2P], which protein stability index is on record?
**A.** 3.68

**Q.** With SMIIHEIDSILGNKPYSKKDYRS [S2M] as the variant, how does the protein stability index read?
**A.** 1.98

**Q.** With STIIHEIDSILGNKPYSKKDYRS [S2T] as the variant, how does the protein stability index read?
**A.** 3.75

**Q.** Which protein stability index does the source give for SHIIHEIDSILGNKPYSKKDYRS [S2H] here?
**A.** 2.31

**Q.** With SDIIHEIDSILGNKPYSKKDYRS [S2D] as the variant, how does the protein stability index read?
**A.** 3.81

**Q.** With SSIIHEIDSILYNKPYSKKDYRS [G12Y] as the variant, how does the protein stability index read?
**A.** 2.97

**Q.** With SSIIHEIDSILQNKPYSKKDYRS [G12Q] as the variant, how does the protein stability index read?
**A.** 3.16

**Q.** Which protein stability index does the source give for SSIIHEIDSILLNKPYSKKDYRS [G12L] here?
**A.** 2.8

**Q.** Which protein stability index does the source give for SSIIHEIDSILCNKPYSKKDYRS [G12C] here?
**A.** 2.82

**Q.** With SSIIHEIDSILGNKPYEKKDYRS [S17E] as the variant, how does the protein stability index read?
**A.** 3.77

**Q.** With SSIIHEIDSILGNKPYPKKDYRS [S17P] as the variant, how does the protein stability index read?
**A.** 3.31

**Q.** For SSIIHEIDSILGNKPYMKKDYRS [S17M], which protein stability index is on record?
**A.** 3.2

**Q.** With SSIIHEIDSILGNKPYHKKDYRS [S17H] as the variant, how does the protein stability index read?
**A.** 2.95

**Q.** Which protein stability index does the source give for SSIIHEIDSILGNKPYWKKDYRS [S17W] here?
**A.** 2.29

**Q.** For SSIIHEIDSILGNKPYKKKDYRS [S17K], which protein stability index is on record?
**A.** 3.43

**Q.** With SSIIHEIDSILGNKPYDKKDYRS [S17D] as the variant, how does the protein stability index read?
**A.** 3.22

**Q.** For SSIIHEIDSILGNKPYVKKDYRS [S17V], which protein stability index is on record?
**A.** 3.45

**Q.** With SSIIHEIDSIKGNKPYSKKDYRS [L11K] as the variant, how does the protein stability index read?
**A.** 4.03

**Q.** With SSIIHEIDSIMGNKPYSKKDYRS [L11M] as the variant, how does the protein stability index read?
**A.** 4.04

**Q.** Which protein stability index does the source give for SSIIHEIDSIRGNKPYSKKDYRS [L11R] here?
**A.** 4.13

**Q.** Which protein stability index does the source give for SSIIHEIDSILGNKPYSKADYRS [K19A] here?
**A.** 3.55

**Q.** For SSIIHEIDSILGNKPYSKGDYRS [K19G], which protein stability index is on record?
**A.** 3.84

**Q.** Which protein stability index does the source give for SSIIHEIDSILGNKPYSKYDYRS [K19Y] here?
**A.** 2.45

**Q.** Which protein stability index does the source give for SSIIHEIDSILGNKPYSKWDYRS [K19W] here?
**A.** 2.8

**Q.** Which protein stability index does the source give for SSIIHEIDSILGNKPYSKLDYRS [K19L] here?
**A.** 3.58

**Q.** For SSIIHEIDSILGNKPYSKVDYRS [K19V], which protein stability index is on record?
**A.** 3.82

**Q.** Which protein stability index does the source give for SSIIHEIDSILGNKPYSKPDYRS [K19P] here?
**A.** 4.09

**Q.** Which protein stability index does the source give for SSIIHEIDSILGNKPYSKRDYRS [K19R] here?
**A.** 2.89

**Q.** With SSIIHEIDSILGNKPYSKDDYRS [K19D] as the variant, how does the protein stability index read?
**A.** 4.08

**Q.** Which protein stability index does the source give for SSIIYEIDSILGNKPYSKKDYRS [H5Y] here?
**A.** 2.05

**Q.** Which protein stability index does the source give for SSIIAEIDSILGNKPYSKKDYRS [H5A] here?
**A.** 3.83
